{
  "source": "paper PMC8682993",
  "about": "(Science Advances, 2021)",
  "binders": {"B1": {"name": "MR-LBD (C805S/A841C) (domain or fragment)", "chain": "APTKEPSVNSALVPQLTSITHALTPSPAMILENIEPETVYAGYDNSKPDTAESLLSTLNRLAAKQMIQVVKWAKVLPGFKNLPLEDQITLIQYSWMSLSSFALSWRSYKHTNSQLLYFAPDLVFNEEKMHQSCMYELCQGMRQISLQFVRLQLTFEEYSIMKVLLLLSTVPKDGLKSQAAFEEMRTNYIKELRKMVTKCPNSSGQSWQRFYQLTKLLDSMHDLVSDLLEFCFYTFRESQALKVEFPAMLVEIITDQLPKVESGNAKPLYFHRK"}, "B2": {"name": "p53-DBD (C124S/C229S/C277S) (domain or fragment)", "chain": "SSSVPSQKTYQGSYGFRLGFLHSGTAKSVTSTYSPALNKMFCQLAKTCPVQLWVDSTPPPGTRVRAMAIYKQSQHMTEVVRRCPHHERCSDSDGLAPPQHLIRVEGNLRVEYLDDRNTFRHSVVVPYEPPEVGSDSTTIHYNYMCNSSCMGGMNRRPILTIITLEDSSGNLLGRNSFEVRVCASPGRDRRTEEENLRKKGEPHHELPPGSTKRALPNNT"}, "B3": {"name": "rat MR-LBD (amino acids 709 to 981; C805S) (domain or fragment)", "chain": "B1 chain with C133A", "modifications": "ATTO 488 maleimide, randomly on cysteine residues (anisotropy and AUC)"}},
  "key": {"[1]": {"biological_target": "T1, full-length yeast Hsp90 (Hsp82) (yeast, UniProt P02829 1-709)", "T1 sequence (P02829 whole entry)": "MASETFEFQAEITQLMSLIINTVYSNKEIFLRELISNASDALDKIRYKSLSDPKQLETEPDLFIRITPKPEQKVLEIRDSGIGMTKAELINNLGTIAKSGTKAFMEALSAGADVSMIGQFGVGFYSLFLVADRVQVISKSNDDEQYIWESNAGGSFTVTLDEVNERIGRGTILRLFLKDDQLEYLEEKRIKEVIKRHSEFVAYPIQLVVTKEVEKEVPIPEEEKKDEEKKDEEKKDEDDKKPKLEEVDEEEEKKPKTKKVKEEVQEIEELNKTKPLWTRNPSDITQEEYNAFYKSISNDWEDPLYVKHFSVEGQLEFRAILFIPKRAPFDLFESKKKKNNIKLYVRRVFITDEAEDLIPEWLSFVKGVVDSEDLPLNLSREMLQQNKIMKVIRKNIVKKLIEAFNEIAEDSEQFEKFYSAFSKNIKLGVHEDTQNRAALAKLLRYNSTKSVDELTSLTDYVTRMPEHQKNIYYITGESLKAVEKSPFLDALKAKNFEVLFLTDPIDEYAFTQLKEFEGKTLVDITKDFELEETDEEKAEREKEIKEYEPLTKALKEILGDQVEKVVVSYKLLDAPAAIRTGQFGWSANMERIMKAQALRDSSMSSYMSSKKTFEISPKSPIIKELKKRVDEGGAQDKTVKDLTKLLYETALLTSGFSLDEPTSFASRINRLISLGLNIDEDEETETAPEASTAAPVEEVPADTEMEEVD", "assay": "AUC"}, "[2]": {"biological_target": "T1, full-length yeast Hsp90 (Hsp82)", "assay": "fluorescence polarisation"}},
  "note": "Changes are numbered by the printed parent chain. Names may count otherwise. “And” between values parts separate entries of the source, which are not always exact repeats. Identical values can stand only once.",
  "data": [
    {"binder": "B1", "values": [
      {"measurement": "binding result", "setting": "[1]", "result": "binds"}
    ]},
    {"binder": "B2", "values": [
      {"measurement": "binding result", "setting": "[1]", "result": "binds"}
    ]},
    {"binder": "B3", "values": [
      {"measurement": "Kd", "setting": "[2]", "result": "5.7 µM and 5.3 µM and 2.2 µM and 1.9 µM"}
    ]}
  ]
}
